In IntAct's records for PubMed 12084722:

Target: apoa1_human APOA1 (UniProt P02647)
Sequence (P02647 whole entry): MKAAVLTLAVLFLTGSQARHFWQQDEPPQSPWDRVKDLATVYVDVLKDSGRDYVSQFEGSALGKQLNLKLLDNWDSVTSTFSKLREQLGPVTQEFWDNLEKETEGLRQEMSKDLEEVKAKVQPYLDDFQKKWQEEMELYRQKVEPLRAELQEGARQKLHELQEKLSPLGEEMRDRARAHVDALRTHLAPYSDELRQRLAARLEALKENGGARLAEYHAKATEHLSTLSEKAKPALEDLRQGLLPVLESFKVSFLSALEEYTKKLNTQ

| Substance | effect of a mutation on the interaction |
| --- | --- |
| Phospholipid-transporting ATPase ABCA1 (Homo sapiens), O95477 C1477R | disrupting interaction strength |
| Phospholipid-transporting ATPase ABCA1 (Homo sapiens), O95477 S1506L | disrupting interaction strength |
| Phospholipid-transporting ATPase ABCA1 (Homo sapiens), O95477 Q597R | disrupting interaction strength |
| Phospholipid-transporting ATPase ABCA1 (Homo sapiens), O95477 W590S | increasing interaction strength |
| Phospholipid-transporting ATPase ABCA1 (Homo sapiens), O95477 R587W | disrupting interaction strength |
